Assay results published in patent publication US20230138315A1 (JIANGSU HENGRUI MEDICINE, published 2023).
Where a chain is given by its changes, count along the chain named. Names and notes keep the numbering of the source.

T1: rat ANGPTL3(17-455)-His (rat, biotin-labelled in the ELISA and HTRF assays (sites not given))
T1 construct: also called full-length rat ANGPTL3
T1 chain: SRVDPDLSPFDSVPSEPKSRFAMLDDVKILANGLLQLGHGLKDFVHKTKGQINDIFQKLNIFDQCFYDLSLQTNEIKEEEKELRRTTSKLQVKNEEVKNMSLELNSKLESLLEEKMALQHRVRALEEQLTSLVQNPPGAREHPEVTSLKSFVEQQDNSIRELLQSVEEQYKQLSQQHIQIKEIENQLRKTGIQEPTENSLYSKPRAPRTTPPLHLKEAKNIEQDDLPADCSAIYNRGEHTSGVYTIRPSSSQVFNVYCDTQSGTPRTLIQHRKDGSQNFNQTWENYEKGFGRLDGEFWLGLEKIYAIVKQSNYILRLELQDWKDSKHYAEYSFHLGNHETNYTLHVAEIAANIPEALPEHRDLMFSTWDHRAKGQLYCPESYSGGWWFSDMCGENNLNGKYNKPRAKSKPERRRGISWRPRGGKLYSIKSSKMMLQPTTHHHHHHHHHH

T2: human-ANGPTL3 (R&D, 3829-AN) (human, UniProt Q9Y5C1 17-460)
T2 construct: Bought antigen used in the Biacore assay
T2 sequence (looked up): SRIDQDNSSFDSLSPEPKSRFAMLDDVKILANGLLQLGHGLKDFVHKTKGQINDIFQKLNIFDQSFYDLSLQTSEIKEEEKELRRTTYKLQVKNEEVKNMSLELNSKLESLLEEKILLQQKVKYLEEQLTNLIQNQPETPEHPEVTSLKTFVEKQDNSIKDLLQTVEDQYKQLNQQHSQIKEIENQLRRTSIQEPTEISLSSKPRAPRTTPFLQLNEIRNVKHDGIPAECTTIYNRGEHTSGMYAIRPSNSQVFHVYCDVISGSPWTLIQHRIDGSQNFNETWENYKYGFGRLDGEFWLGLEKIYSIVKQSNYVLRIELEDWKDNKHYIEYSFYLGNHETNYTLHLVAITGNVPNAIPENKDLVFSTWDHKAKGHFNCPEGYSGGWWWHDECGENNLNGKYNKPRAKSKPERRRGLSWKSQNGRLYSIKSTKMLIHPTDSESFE

T3: mouse ANGPTL3(17-455)-His (mouse, UniProt Q9R182 17-455, biotin-labelled in the ELISA and HTRF assays (sites not given))
T3 construct: also called full-length mouse ANGPTL3
T3 sequence: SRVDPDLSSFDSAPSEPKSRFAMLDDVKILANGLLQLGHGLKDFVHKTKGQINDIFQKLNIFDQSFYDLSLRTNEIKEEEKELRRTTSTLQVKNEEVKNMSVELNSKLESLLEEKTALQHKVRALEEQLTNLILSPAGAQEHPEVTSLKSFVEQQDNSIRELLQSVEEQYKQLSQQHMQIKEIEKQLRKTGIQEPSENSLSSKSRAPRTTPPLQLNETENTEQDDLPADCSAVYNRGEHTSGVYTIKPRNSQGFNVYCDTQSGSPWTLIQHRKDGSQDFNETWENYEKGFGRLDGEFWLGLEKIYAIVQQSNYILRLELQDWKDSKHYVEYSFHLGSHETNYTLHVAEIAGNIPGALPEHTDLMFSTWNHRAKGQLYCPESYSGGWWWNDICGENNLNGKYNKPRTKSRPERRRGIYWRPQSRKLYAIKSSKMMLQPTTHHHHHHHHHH

T4: cynomolgus monkey ANGPTL3(17-460)-His (cynomolgus monkey, UniProt Q9Y5C1 17-460 (human entry), biotin-labelled in the ELISA and HTRF assays (sites not given))
T4 construct: also called full-length cynomolgus monkey ANGPTL3; Cyno ANGPTL3
T4 chain: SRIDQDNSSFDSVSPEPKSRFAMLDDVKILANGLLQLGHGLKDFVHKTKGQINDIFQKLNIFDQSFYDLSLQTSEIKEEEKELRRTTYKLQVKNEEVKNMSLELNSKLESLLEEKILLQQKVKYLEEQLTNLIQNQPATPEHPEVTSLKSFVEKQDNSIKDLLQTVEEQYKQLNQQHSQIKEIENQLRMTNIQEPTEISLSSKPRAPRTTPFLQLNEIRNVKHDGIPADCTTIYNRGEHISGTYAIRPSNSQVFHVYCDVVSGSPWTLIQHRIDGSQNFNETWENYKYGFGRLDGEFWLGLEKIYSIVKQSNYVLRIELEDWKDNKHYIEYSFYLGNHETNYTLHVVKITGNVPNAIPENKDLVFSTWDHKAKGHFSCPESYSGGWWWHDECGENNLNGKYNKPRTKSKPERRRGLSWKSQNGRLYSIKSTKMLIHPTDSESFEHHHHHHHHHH

B1: P3G (antibody, human IgG4 S228P, kappa, V domains shown)
VH: QVQLVQSGAEVKKPGASVKVSCKSSGYTFTDYYLHWLRQAPGQGPEWMGWISPNSGGTSYAQKFQGRVTMTRDTSISTAYMELSSLRSDDTAVYYCARDIATLGNFFTYGMDVWGQGTTVTVSS
VL: DIQLTQSPSSLSASVGDRVTITCRASQGIRNDLGWYQQKPGKAPKLLIYAASSLQSGVPSRFSGSGSGTDFTLTISSLQPEDFATYYCQQSYSSWTFGQGTKVEIKR
notes: also called anti-ANGPTL3 antibody P3G; P3 (variable regions)
B2: P8G (antibody, human IgG4 S228P, kappa, V domains shown)
VH: QVQLVQSGAEVKKPGASVKVSCKASGYTFTSYDINWVRQAPGQGLEWVGLINPRDDSTSYAQKFQGRVTMTRDTSTSTMYMELSSLRSEDTAVYFCARDLGSIREVLYYGMDVWGQGTTVTVSS
VL: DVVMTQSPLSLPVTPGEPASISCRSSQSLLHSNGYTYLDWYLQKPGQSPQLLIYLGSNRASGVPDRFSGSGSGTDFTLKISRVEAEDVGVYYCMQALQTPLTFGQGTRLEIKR
notes: also called anti-ANGPTL3 antibody P8G; P8 (variable regions)
B3: P8BG (antibody, human IgG4 S228P, kappa, V domains shown)
VH: B2 VH with D55E
VL: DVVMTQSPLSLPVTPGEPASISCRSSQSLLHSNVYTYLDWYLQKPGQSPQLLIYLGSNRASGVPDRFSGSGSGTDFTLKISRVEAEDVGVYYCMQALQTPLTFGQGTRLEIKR
notes: also called anti-ANGPTL3 antibody P8BG; P8B (variable regions)

Experiments:
Assay in all cases: SPR (Biacore T200); antibody captured on Protein A chip, antigen in flow; 1:1 Langmuir fit
[1] = target: T1, rat ANGPTL3(17-455)-His
Source text: (§1) Biacore was used to determine the affinity of the test anti-ANGPTL3 antibodies for human, monkey, rat and mouse ANGPTL3, and the method is as follows:
(§2) Reaction signals were detected in real time using a Biacore T200 instrument to obtain association and dissociation curves. After each cycle of dissociation was completed, the biochip was washed and regenerated using a glycine-hydrochloric acid regeneration solution (Cat. # BR-1003-54, GE, pH 1.5). The running buffer for the experiment was 1×HBS-EP buffer (Cat. # BR-1001-88, GE). The data obtained from the experiment were fitted with the (1:1) Langmuir model using GE Biacore T200 evaluation software (version 3.0) to obtain affinity values.

[2] = target: T2, human-ANGPTL3 (R&D, 3829-AN)
Source text: as §1, §2

[3] = target: T3, mouse ANGPTL3(17-455)-His
Source text: as §1, §2

[4] = target: T4, cynomolgus monkey ANGPTL3(17-460)-His
Source text: as §1, §2

Row | Binder | Kd [1] [nM] | koff [1] [s⁻¹] | kon [1] [M⁻¹ s⁻¹] | Kd [2] [nM] | koff [2] [s⁻¹] | kon [2] [M⁻¹ s⁻¹] | Kd [3] [nM] | koff [3] [s⁻¹] | kon [3] [M⁻¹ s⁻¹] | Kd [4] [nM] | koff [4] [s⁻¹] | kon [4] [M⁻¹ s⁻¹]
1 | B1 | 0.639 | 0.00082 | 1.28e+06 | 0.285 | 0.000731 | 2.56e+06 | 0.843 | 0.000827 | 981000 | 0.204 | 0.000847 | 4.15e+06
2 | B2 | 0.25 | 0.000335 | 1.34e+06 | 0.151 | 0.000333 | 2.2e+06 | 0.355 | 0.000345 | 970000 | 0.0593 | 0.000497 | 8.37e+06
3 | B3 | 0.257 | 0.000311 | 1.21e+06 | 0.045 | 0.000276 | 6.14e+06 | 0.288 | 0.00042 | 1.46e+06 | 0.0769 | 0.000398 | 5.18e+06
